According to patent US20230019640A1 (Janssen / Centocor, published 2023):

B1: VHH3 - linker-mono-Fc protein (Fc fusion)
chain: QLQLVESGGGLVQPGGSLRLSCAASGSIFSINVMGWYRQAPGKQRELVARINGGGITHYAESVKGRFTISRDNAKNTVYLQMNSLKPEDTAAYYCKADVFGSSGYVETYWGQGTQVTVSSEPKTPKPQPQPQLQPQPNPTTESKSPKSPAPELLGGPSVFLFPPKPKDTLMISRTPEVTCVVVDVSHEDPEVKFNWYVDGVEVHNAKTKPREEQYNSTYRVVSVLTVLHQDWLNGKEYKCKVSNKALPAPIEKTISKAKGQPREPQVYTKPPSREEMTKNQVSLSCLVKGFYPSDIAVEWESNGQPENNYKTTVPVLDSDGSFRLASYLTVDKSRWQQGNVFSCSVMHEALHNHYTQKSLSLSPGK
notes: also called VHH3-mono-Fc; hpIgR_021
B2: VHH2 - linker-mono-Fc protein (Fc fusion)
chain: EVQVVESGGGLVQAGGSLKLACAAPGLTFSSYRMGWFRQAPGQEREFVAAIDWNGRGTYYRYYADSVKGRSTISRDNAKNTVYLQMNSLKPEDTAVYYCAATTVLTDPRVLNEYATWGQGTQVTVSSEPKTPKPQPQPQLQPQPNPTTESKSPKSPAPELLGGPSVFLFPPKPKDTLMISRTPEVTCVVVDVSHEDPEVKFNWYVDGVEVHNAKTKPREEQYNSTYRVVSVLTVLHQDWLNGKEYKCKVSNKALPAPIEKTISKAKGQPREPQVYTKPPSREEMTKNQVSLSCLVKGFYPSDIAVEWESNGQPENNYKTTVPVLDSDGSFRLASYLTVDKSRWQQGNVFSCSVMHEALHNHYTQKSLSLSPGK
notes: also called VHH2-mono-Fc; mpIgR_338

Biological target: T1, mouse pIgR extracellular domain (ECD) (mouse, UniProt O70570 19-645)
T1 construct: The entry ends with a C-terminal HHHHHH tag; also called mpIgR; mpIgR ectodomain
T1 sequence: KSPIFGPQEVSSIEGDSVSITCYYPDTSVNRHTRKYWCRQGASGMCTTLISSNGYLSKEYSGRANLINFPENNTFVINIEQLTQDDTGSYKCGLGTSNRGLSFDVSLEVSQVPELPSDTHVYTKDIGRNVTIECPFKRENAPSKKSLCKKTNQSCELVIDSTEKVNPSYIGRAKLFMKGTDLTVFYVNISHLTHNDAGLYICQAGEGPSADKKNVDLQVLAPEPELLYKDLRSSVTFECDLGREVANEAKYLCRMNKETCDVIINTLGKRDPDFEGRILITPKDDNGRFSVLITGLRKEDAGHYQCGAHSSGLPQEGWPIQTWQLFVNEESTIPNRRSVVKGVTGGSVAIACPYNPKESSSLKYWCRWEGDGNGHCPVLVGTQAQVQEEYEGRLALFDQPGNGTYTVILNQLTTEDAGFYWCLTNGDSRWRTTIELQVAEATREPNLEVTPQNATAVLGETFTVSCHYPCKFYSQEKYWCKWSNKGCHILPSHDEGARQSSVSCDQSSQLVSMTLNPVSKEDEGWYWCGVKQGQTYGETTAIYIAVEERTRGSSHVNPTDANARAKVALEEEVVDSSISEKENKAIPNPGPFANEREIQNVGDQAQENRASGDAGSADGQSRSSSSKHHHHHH
Assay: not named on the sheet

Binder | binding result
B1 | binds
B2 | binds
